According to patent publication US9850293B2, “Targeting trastuzumab-resistant HER2+ breast cancer with a HER3-targeting nanoparticle” (priority 2014, dated 2017):

Tests used:
MDA-MB-435 = assay: Cytotoxicity on cell lines (HerDox dose curves); format: cell-based, human; settings: concentration yielding 50% reduction in cell survival, mean ± SD
Experimental: FIG. 17 (B) depicts toxicity to cells displaying differential HER2. Cytotoxicities from a range of HerDox doses were assessed on each cell line by metabolic assay and confirmed by crystal violet stain. LD50 values shown in log scale were determined by non-linear regression analyses of HerDox dose curves using a scientific graphing program and confirmed using a calculator. The relative HER2 level of each cell line is shown next to each LD50 value.
The inventors measured cell surface levels of HER subunits on various cell lines and types described herein, as previously described levels may not reflect the actual levels in the available cells used. The inventors acquired the indicated cell lines from ATCC and the NIH/NCI and profiled these with respect to HER subunit levels (FIG. 17 (A)). To assess whether HerDox induces toxicity in accordance to HER2 levels, the inventors selected lines displaying HER2 at relatively high (SKBR3), moderate (MDA-MB-435, MDA-MB-453, HeLa), and low to undetectable (MDA-MB-231) levels, and performed cytotoxicity dose curves.

U251 human glioma cells = assay: Toxicity to glioma cells (cell count); format: cell-based; settings: four days
Experimental: Significant differences were determined by 2-tailed tests.
Cells were trypsinized and counted on the last day.

[1] = Stability in mouse whole blood; format: in vitro ADME; settings: 0.12 mg/mL Dox, 37° C., up to one hour
Experimental: FIG. 13 illustrates stability in mouse whole blood. […] As 0.5 mM EDTA was used as an anticoagulant, HerDox in EDTA alone (− blood) was processed in parallel. Bars represent fluorescence of retained (retentates) or released (filtrates) Dox as a percentage of the total fluorescence of each sample. Scale of Y-axis is adjusted to show presence of filtrate samples. N=3 per treatment.
(A) depicts a graphic of HerDox formed by non-covalent, serum-stable self-assembly, showing HerPBK10 with functional domains delineated, and electrophilic binding with Dox-intercalated ds-oligo. (B) depicts a CryoEM image of HerDox particles. (C) is a HPLC chromatogram of HerDox showing elution profile of Dox absorbance. […] (D) illustrates the protection of ds-oligo from serum nuclease digestion by HerPBK10. The ds-oligo was incubated for 20 min in 100% mouse serum (Abcam, Cambridge, Mass., USA) before PAGE and EtBr staining to visualize the DNA. (E) illustrates that HerDox remains stable in blood. […] N=3. *, p<0.05, compared to respective retentates.
As the anticoagulant, 0.5 mM EDTA, was present in the blood collection, parallel samples were incubated at 37° C. in EDTA alone. Samples representing input HerDox (before incubation in blood) were incubated at 37° C. in HEPES-buffered saline.

MDA-MB-231 (HER2−) = assay: Targeted toxicity, cell survival by MTT assay; format: cell-based, human; settings: 0.5 μM with respect to Dox; HerPBK10 0.1 μM; day 3
Experimental: FIG. 7 illustrates targeted toxicity. […] Cell titer was determined by metabolic (i.e. MTT) assay. FIG. 7 upper panel illustrates the effect of HerDox on MDA-MB-231 (HER2−) and MDA-MB-435 (HER2+) cell survival. Relative surviving cell numbers are represented as a % of corresponding untreated cells. […] Relative survival (as % of untreated cells) is shown for Day 3 of treatment.
N=3. […] Bar, about 4 μm. […] (E) compares HerDox and Dox on off-target tissue. […] Green fluorescence in nuclei indicates apoptosis (positive TUNEL stain).
By three days, HerDox reduced HER2+ cell numbers by over 75% whereas HER2− cell survival was unaffected (FIG. 7). […] These findings emphasize the importance of targeting by showing that the untargeted drug affects nontarget (i.e. HER2−) cells. […] To test receptor targeting, the inventors used free heregulin ligand (Her or eHRG) as a competitive inhibitor. […] As a final in vitro challenge, the inventors tested whether HerDox induces toxicity specifically to HER2+ cells in a mixed culture of HER2+ and HER2− breast cancer cells. To do this, the inventors produced a HER2− cell line tagged with green fluorescent protein (GFP) for cell identification in the mixed culture (FIG. 9-A). […] Altogether, these findings indicate that HerDox has the capacity to preferentially target toxicity to HER2+ cells. […] In serum-containing media, no such loss from HerDox is detectable. […] Co-migration of HerPBK10 bands further verified that the conjugates remained intact in the cell media.

T47D = assay: Cytotoxicity on cell lines (HerDox dose curves); format: cell-based, human; settings: concentration yielding 50% reduction in cell survival, mean ± SD
[2] = HerDox stability in cell culture media (agarose gel); format: in vitro ADME; settings: serum-containing media, 37° C.
Experimental: FIG. 9 (C) illustrates that there is stability in cell culture. Aliquots of culture media containing HerDox (after incubation for the indicated times at 37° C.) were electrophoresed on a 2% agarose gel. HerDox incubated at 37° C. in HEPES-buffered saline, lacking serum, was processed in parallel. Dox fluorescence was visualized by UV excitation. Free Dox (Dox alone) is not retained in the gel whereas Dox incorporated in HerDox is. To align fluorescent bands with HerPBK10 and assess loading per lane, the gel was stained with Coomassie blue, which also identified serum protein from culture media samples.
By three days, HerDox reduced HER2+ cell numbers by over 75% whereas HER2− cell survival was unaffected (FIG. 7). […] These findings emphasize the importance of targeting by showing that the untargeted drug affects nontarget (i.e. HER2−) cells. […] To test receptor targeting, the inventors used free heregulin ligand (Her or eHRG) as a competitive inhibitor. […] As a final in vitro challenge, the inventors tested whether HerDox induces toxicity specifically to HER2+ cells in a mixed culture of HER2+ and HER2− breast cancer cells. To do this, the inventors produced a HER2− cell line tagged with green fluorescent protein (GFP) for cell identification in the mixed culture (FIG. 9-A). […]

B1: HerDox: non-covalent complex of HerPBK10, double-stranded oligonucleotide and intercalated Dox (Unit A+Unit B+Unit C) (conjugate)
chain: SHLVKCAEKEKTFCVNGGECFMVKDLSNPSRYLCKCQPGFTGARCTENVPMKVQNQEKAEELYQKMRRAAMYEEGPPPSYESVVSAAPVAAALGSPFDAPLDPPFVPPRYLRPTGGRNSIRYSELAPLFDTTRVYLVDNKSTDVASLNYQNDHSNFLTTVIQNNDYSPGEASTQTINLDDRSHWGGDLKTILHTNMPNVNEFMFTNKFKARVMVSRLPTKDNQVELKYEWVEFTLPEGNYSETMTIDLMNNAIVEHYLKVGRQNGVLESDIGVKFDTRNFRLGFDPVTGLVMPGVYTNEAFHPDIILLPGCGVDFTHSRLSNLLGIRKRQPFQEGFRITYDDLEGGNIPALLDVDAYQASLKDDTEQGGGGAGGSNSSGSGAEENSNAAAAAMQPVEDMNDHAIRGDTFATRAEEKRAEAEAAAEAAAPAAQPEVEKPQKKPVIKPLTEDSKKRSYNLISNDSTFTQYRSWYLAYNYGDPQTGIRSWTLLCTPDVTCGSEQVYWSLPDMMQDPVTFRSTRQISNFPVVGAELLPVHSKSFYNDQAVYSQLIRQFTSLTHVFNRFPENQILARPPAPTITTVSENVPALTDHGTLPLRNSIGGVQRVTITDARRRTCPYVYKALGIVSPRVLSSRTFKKKKKKKKKK
modifications: left off: small tags and cut ends
Which results are given for B1?
EC50 (MDA-MB-435): 0.74 ± 0.07 µM; toxicity relative to the equivalent concentration of Dox (U251 human glioma cells; 0.5 μM or 1 μM): 8-10 times; factor less HerDox eliciting the same toxicity as Dox (U251 human glioma cells): 10 ×; loss of Dox from conjugate in whole blood [1]: no detectable loss of Dox from the conjugate; effect on HER2− cell survival (MDA-MB-231 (HER2−)): unaffected; EC50 (T47D): 0.64 ± 0.04 µM; loss of Dox fluorescence from conjugate in culture media [2]: no such loss
